Measured values as given in article PMC9472616 (2022).

B1: REGN10987 (antibody, V domains shown)
VH: QVQLVESGGGVVQPGRSLRLSCAASGFTFSNYAMYWVRQAPGKGLEWVAVISYDGSNKYYADSVKGRFTISRDNSKNTLYLQMNSLRTEDTAVYYCASGSDYGDYLLVYWGQGTLVTVSS
VL: QSALTQPASVSGSPGQSITISCTGTSSDVGGYNYVSWYQQHPGKAPKLMIYDVSKRPSGVSNRFSGSKSGNTASLTISGLQSEDEADYYCNSLTSISTWVFGGGTKLTVL
B2: CB6 (antibody, V domains shown)
VH: EVQLVESGGGLVQPGGSLRLSCAASGFTVSSNYMSWVRQAPGKGLEWVSVIYSGGSTFYADSVKGRFTISRDNSMNTLFLQMNSLRAEDTAVYYCARVLPMYGDYLDYWGQGTLVTVSS
VL: not shown
B3: BD-368 (antibody, V domains shown)
VH: EVQLLESGGGVVQPGGSLRLSCAASGFAFTTYAMNWVRQAPGRGLEWVSAISDGGGSAYYADSVKGRFTISRDNSKNTLYLQMNSLRAEDTAVYYCAKTRGRGLYDYVWGSKDYWGQGTLVTVSS
VL: not shown
B4: REGN10933 (antibody, V domains shown)
VH: QVQLVESGGGLVKPGGSLRLSCAASGFTFSDYYMSWIRQAPGKGLEWVSYITYSGSTIYYADSVKGRFTISRDNAKSSLYLQMNSLRAEDTAVYYCARDRGTTMVPFDYWGQGTLVTVSS
VL: DIQMTQSPSSLSASVGDRVTITCQASQDITNYLNWYQQKPGKAPKLLIYAASNLETGVPSRFSGSGSGTDFTFTISGLQPEDIATYYCQQYDNLPLTFGGGTKVEIK

Molecular target: SARS-CoV-2 WT RBD (SARS-CoV-2, UniProt P0DTC2 319-541)
Assay: SPR

Binder	Kd [nM]
B1	2.22
B2	30
B3	3.47
B4	1.6
